Measured values as given in paper PMC4837482, “The complex binding mode of the peptide hormone H2 relaxin to its receptor RXFP1” (Nature Communications, 2016).
Positions count from the first letter of the chain named.

Tests used:
[1] = molecular target: T1, RXFP1 (Homo sapiens, UniProt Q9HBX9); test: cAMP activity assay (pCRE β-galactosidase reporter), transfected HEK293T cells; format: cell-based; settings: Mn2+ replacing Eu3+ in the DTPA cage; method not described
T1 construct: transiently transfected human embryonic kidney (HEK) 293T cells expressing full-length RXFP1 and mutants; expressed in transfected cells; host or cells: HEK293T
T1 sequence (Q9HBX9 1-757): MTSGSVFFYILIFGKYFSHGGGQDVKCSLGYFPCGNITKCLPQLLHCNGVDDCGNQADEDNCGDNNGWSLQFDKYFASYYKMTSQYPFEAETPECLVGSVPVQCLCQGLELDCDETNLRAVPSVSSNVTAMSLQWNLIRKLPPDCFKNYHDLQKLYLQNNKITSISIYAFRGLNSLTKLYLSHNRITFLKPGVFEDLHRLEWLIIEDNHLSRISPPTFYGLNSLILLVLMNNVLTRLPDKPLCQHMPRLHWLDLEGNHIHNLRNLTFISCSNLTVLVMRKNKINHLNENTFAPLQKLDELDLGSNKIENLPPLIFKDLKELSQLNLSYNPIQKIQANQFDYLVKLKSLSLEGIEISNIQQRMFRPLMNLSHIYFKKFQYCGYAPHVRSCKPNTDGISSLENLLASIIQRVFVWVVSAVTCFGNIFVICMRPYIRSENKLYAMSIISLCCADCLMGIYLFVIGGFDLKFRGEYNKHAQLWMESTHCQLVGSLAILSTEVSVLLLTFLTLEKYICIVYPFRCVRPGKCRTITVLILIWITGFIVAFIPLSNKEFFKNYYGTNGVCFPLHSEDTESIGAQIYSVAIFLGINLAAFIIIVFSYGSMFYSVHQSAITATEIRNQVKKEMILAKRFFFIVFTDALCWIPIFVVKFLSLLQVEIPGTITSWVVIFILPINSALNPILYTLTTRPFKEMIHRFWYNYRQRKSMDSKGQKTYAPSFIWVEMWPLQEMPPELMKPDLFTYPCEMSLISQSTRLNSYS
Method: Media was aspirated and plates stored frozen at −80 °C overnight. […] H2 relaxin dilutions were prepared in minimal media containing 1% DMSO. Positive and negative control stimulations were achieved by incubation with 5 μM Forskolin and minimal media/1% DMSO, respectively. Plates were developed by 10 min of incubation in 25 μl of lysis buffer 1 (100 mM Na2HPO4, pH 8.0, 0.2 mM MgSO4 0.01 mM MnCl2); a further 10 min of incubation in 100 μl of buffer 2 (100 mM Na2HPO4, pH 8.0, 2 mM MgSO4, 0.1 mM MnCl2, 0.5% Triton X-100, 40 mM β-mercaptoethanol); then to each well 25 μl of the β-galactosidase substrate, chlorophenol red-β-D-galactopyranoside (Roche) was added. All incubation steps were conducted with orbital shaking. Color-change was monitored and readings were taken on a Benchmark Plus Microplate Reader (Bio-Rad) at 570 nm. A minimum of three separate experiments were performed, each of them in triplicate, and data were pooled and presented as percentages of the maximum response induced by 5 μM Forskolin±s.e.m.

[2] = molecular target: T1, RXFP1; test: Eu-H2 relaxin saturation binding assay, transfected HEK293T cells; settings: Mn2+ replacing Eu3+ in the DTPA cage; method not described
[3] = molecular target: T2, F50A RXFP1(1–72) (Homo sapiens, UniProt Q9HBX9, F72A); test: Paramagnetic line-broadening (1H-15N HSQC) titration with Mn2+-DTPA-(A)-H2; format: binding; settings: 50 μM F50A RXFP1(1–72), 0.2 μM Mn2+-DTPA-(A)-H2; versus wild type
T2 construct: GB1 (N, cleaved yes); made in house; host or cells: E. coli BL21 (DE3) trxB
T2 sequence (Q9HBX9 23-94 F72A): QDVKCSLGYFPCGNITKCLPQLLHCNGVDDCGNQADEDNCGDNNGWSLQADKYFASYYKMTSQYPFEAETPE
Method: (§1) All RXFP1(1–72) protein samples for nuclear magnetic resonance (NMR) experiments were prepared from lyophilized protein in 50 mM imidazole, with 10 mM CaCl2 at pH 6.8. Recombinant human gene-2 H2 relaxin peptide was kindly provided by Corthera. EL1^(475–486)/EL2-GB1 samples were prepared as described above. Titrant and titrand were dialyzed in the same buffer in the same vessel. All NMR experiments were routinely collected at 25 °C on a 700-MHz Bruker Avance HDIII spectrometer equipped with triple resonance cryoprobe. […] Backbone assignments were made from 3D HNCACB, HNCOCACB, HNCO and HNCACO experiments. Spectra were processed using NMRPipe (ref. [43]) and typically Fourier-transformed after applying Lorentz-to-Gauss window functions in the direct dimension and cosine bells in the indirect dimensions. NMR data were analysed using SPARKY (Goddard, T.D. and Kneller, D.G., University of California, San Francisco). Assignments of the mutant RXFP1(1–72) proteins were determined from the assignments of wild-type RXFP1(1–72).
(§2) ^15N{^1H}-NOE experiments[45] (2,048 × 256 data points) were acquired with a saturation pulse of 4 s and an additional relaxation delay of 5 s. Sample conditions were 150 μM RXFP(1–72) or mutants either without or with 450 μM H2 relaxin. Binding to Mn^2+-DTPA-(A)-H2 to RXFP1(1–72) and mutants was monitored by recording 2D ^1H-^15N HSQC (2,048 × 256 data points) for 0.2 μM Mn^2+-DTPA-(A)-H2 against 50 μM RXFP1(1–72). H2 relaxin and its truncates such as A-chain (9–24), H2/I5 chimera and Phe23Ala A-chain mutant H2 were titrated into a complex of 50 μM RXFP1(1–72) and 0.2 μM Mn^2+-DTPA-(A)-H2 with increasing concentrations ranging from 5 to 50 μM.

[4] = molecular target: T3, F50A^Ins-RXFP1(1–72) (Homo sapiens, UniProt Q9HBX9, INS72A); test: as above; format: binding; settings: 50 μM F50A^Ins-RXFP1(1–72), 0.2 μM Mn2+-DTPA-(A)-H2; versus wild type
T3 construct: GB1 (N, cleaved yes); made in house; host or cells: E. coli BL21 (DE3) trxB
T3 sequence (Q9HBX9 with tags, fused parts or gaps INS72A): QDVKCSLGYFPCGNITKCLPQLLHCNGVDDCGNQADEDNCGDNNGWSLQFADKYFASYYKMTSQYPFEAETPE
Method: as §1, §2

[5] = molecular target: T4, F54A-RXFP1(1–72) (Homo sapiens, UniProt Q9HBX9, F76A); test: as above; format: binding; settings: 50 μM F54A-RXFP1(1–72), 0.2 μM Mn2+-DTPA-(A)-H2; versus wild type
T4 construct: GB1 (N, cleaved yes); made in house; host or cells: E. coli BL21 (DE3) trxB
T4 sequence (Q9HBX9 23-94 F76A): T2 sequence (Q9HBX9 23-94 F72A) with A50F, F54A
Method: as §1, §2

[6] = molecular target: T5, F54A/Y58A RXFP1(1–72) (Homo sapiens, UniProt Q9HBX9, F76A/Y80A); test: as above; format: binding; settings: 50 μM F54A/Y58A RXFP1(1–72), 0.2 μM Mn2+-DTPA-(A)-H2; versus wild type
T5 construct: GB1 (N, cleaved yes); made in house; host or cells: E. coli BL21 (DE3) trxB
T5 sequence (Q9HBX9 23-94 F76A/Y80A): T2 sequence (Q9HBX9 23-94 F72A) with A50F, F54A, Y58A
Method: as §1, §2

[7] = molecular target: T6, G41A/D42A-RXFP1(1–72) (Homo sapiens, UniProt Q9HBX9, D64A/G63A); test: as above; format: binding; settings: 50 μM G41A/D42A-RXFP1(1–72), 0.2 μM Mn2+-DTPA-(A)-H2; versus wild type
T6 construct: GB1 (N, cleaved yes); made in house; host or cells: E. coli BL21 (DE3) trxB
T6 sequence (Q9HBX9 23-94 G63A/D64A): T2 sequence (Q9HBX9 23-94 F72A) with G41A, D42A, A50F
Method: as §1, §2

[8] = molecular target: T7, G45A/W46A-RXFP1(1–72) (Homo sapiens, UniProt Q9HBX9, G67A/W68A); test: as above; format: binding; settings: 50 μM G45A/W46A-RXFP1(1–72), 0.2 μM Mn2+-DTPA-(A)-H2; versus wild type
T7 construct: GB1 (N, cleaved yes); made in house; host or cells: E. coli BL21 (DE3) trxB
T7 sequence (Q9HBX9 23-94 G67A/W68A): T2 sequence (Q9HBX9 23-94 F72A) with G45A, W46A, A50F
Method: as §1, §2

“Mn^2+-DTPA-(A)-H2: H2 relaxin with a DTPA cage at the N-terminus of the A-chain loaded with Mn2+ (paramagnetic label)” was tested, and the “activating RXFP1” value [1] was “no difference”, the “binding to RXFP1” value [2] was “no difference” and the “line-broadening by Mn2+-DTPA-(A)-H2 (binding)” value (“line-broadening” for short) [3] was “substantially reduced”. The “line-broadening” value [4] was “reduced peak broadening”, the “line-broadening” value [5] was “less than that observed for wild-type RXFP1(1–72)” and the “line-broadening” value [6] was “substantially reduced”. The “line-broadening” value [7] was “attenuated” and the “line-broadening” value [8] was “substantially less than that observed for wild-type RXFP1(1–72)”.
